{"source": "paper PMC2959125", "about": "(Biochemistry, 2010)", "proteins": {"B1": {"name": "N-acetyl-L-ornithine transcarbamylase from Xanthomonas campestris, K302A mutant (enzyme)", "chain": "MSLKHFLNTQDWSRAELDALLTQAALFKRNKLGSELKGKSIALVFFNPSMRTRTSFELGAFQLGGHAVVLQPGKDAWPIEFNLGTVMDGDTEEHIAEVARVLGRYVDLIGVRAFPKFVDWSKDREDQVLKSFAKYSPVPVINMETITHPCQELAHALALQEHFGTPDLRGKKYVLTWTYHPKPLNTAVANSALTIATRMGMDVTLLCPTPDYILDERYMDWAAQNVAESGGSLQVSHDIDSAYAGADVVYAKSWGALPFFGNWEPEKPIRDQYQHFIVDERKMALTNNGVFSHCLPLRRNVAATDAVMDSPNCIAIDEAENRLHVQKAIMAALVGQSRP"}, "B2": {"name": "N-acetyl-L-ornithine transcarbamylase from Xanthomonas campestris, K302R mutant (enzyme)", "chain": "B1 chain with A302R"}, "B3": {"name": "N-acetyl-L-ornithine transcarbamylase from Xanthomonas campestris, K302E mutant (enzyme)", "chain": "B1 chain with A302E"}}, "note": "Where a chain is given by its changes, count along the chain named. Names may count otherwise."}
{"target": "the molecule itself", "assay": "crystal structure"}
{"protein": "B1", "binding result": "binds"}
{"protein": "B2", "binding result": "binds"}
{"protein": "B3", "binding result": "binds"}
